Results taken from IntAct's records for PubMed 33758649.

B1: Protein PALS1 (Homo sapiens), Q8N3R9 (parent)
chain: MTTSHMNGHVTEESDSEVKNVDLASPEEHQKHREMAVDCPGDLGTRMMPIRRSAQLERIRQQQEDMRRRREEEGKKQELDLNSSMRLKKLAQIPPKTGIDNPMFDTEEGIVLESPHYAVKILEIEDLFSSLKHIQHTLVDSQSQEDISLLLQLVQNKDFQNAFKIHNAITVHMNKASPPFPLISNAQDLAQEVQTVLKPVHHKEGQELTALLNTPHIQALLLAHDKVAEQEMQLEPITDERVYESIGQYGGETVKIVRIEKARDIPLGATVRNEMDSVIISRIVKGGAAEKSGLLHEGDEVLEINGIEIRGKDVNEVFDLLSDMHGTLTFVLIPSQQIKPPPAKETVIHVKAHFDYDPSDDPYVPCRELGLSFQKGDILHVISQEDPNWWQAYREGDEDNQPLAGLVPGKSFQQQREAMKQTIEEDKEPEKSGKLWCAKKNKKKRKKVLYNANKNDDYDNEEILTYEEMSLYHQPANRKRPIILIGPQNCGQNELRQRLMNKEKDRFASAVPHTTRSRRDQEVAGRDYHFVSRQAFEADIAAGKFIEHGEFEKNLYGTSIDSVRQVINSGKICLLSLRTQSLKTLRNSDLKPYIIFIAPPSQERLRALLAKEGKNPKPEELREIIEKTREMEQNNGHYFDTAIVNSDLDKAYQELLRLINKLDTEPQWVPSTWLR

Variants of: B1
Details: with vemp_sars E

Variant	effect of a mutation on the interaction
F318W	increasing interaction strength
